{"source": "patent US20250215091A1", "about": "“Anti-GAL3 Antibodies and Compositions” (Les Laboratoires Servier, priority 2022, published 2025)", "molecules": {"B1": {"name": "H10-G1: germline framework variant of H10; Table 3 lists H10-G with VH SEQ ID NO 90, VL SEQ ID NO 91 (antibody, V domains shown)", "VH": "EVQLVESGGGLVKPGGSLRLSCAASGFTFSNYYMNWVRQAPGKGLEWISYINGASRDISYADSVKGRFTISRDNAKNSLYLQMNSLRAEDTAVYYCVRSSYGYSNYGSGMDVWGRGTLVTVSS", "VL": "QSALTQPASVSGSPGQSITISCTGTSSDVGGSYNVAWYQQHPGKAPKLMIYNDANRPSGVSNRFSGSKSGNTASLTISGLQAEDEADYYCSSNTADSTRVFGGGTKLEIK"}}, "biological_target": "T1, recombinant human Gal3 full-length (Hu-Gal3-FL) (Homo sapiens, UniProt P17931)", "T1 construct": "recombinant human Gal3 full-length (Hu-Gal3-FL); purchased Novalix", "T1 sequence (P17931 whole entry)": "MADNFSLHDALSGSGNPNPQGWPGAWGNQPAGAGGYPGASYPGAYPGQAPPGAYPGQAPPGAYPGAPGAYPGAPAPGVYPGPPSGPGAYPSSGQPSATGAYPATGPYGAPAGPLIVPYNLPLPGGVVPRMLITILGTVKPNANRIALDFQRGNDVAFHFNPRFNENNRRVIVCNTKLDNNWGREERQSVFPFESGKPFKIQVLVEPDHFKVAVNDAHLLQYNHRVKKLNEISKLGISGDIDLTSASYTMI", "experiment": "SPR (Biacore T-200) affinity on human full-length Gal3", "assay_type": "binding", "conditions": "full-length Gal3, 25° C.", "experimental": "The interaction of the anti-Gal3 antibody with recombinant human Gal3 full-length (Hu-Gal3-FL) and murine Gal3 (m-Gal3-FL) (from Novalix) was monitored by surface plasmon resonance (SPR) detection using a Biacore T-200 instrument.\nBinding studies were performed in freshly prepared, filtered and degassed running buffer containing 10 mM HEPES, 150 mM NaCl, and 0.05% P20 (HBS-P, Cytiva Life Sciences) at 25° C. Before performing the binding studies, the CM5 sensor surface immobilized with anti-human Fc mAb was equilibrated with HBS-P by priming the instrument at least three to four times.\nThe CM5 sensor surface was first immobilized with an anti-human Fc mAb using a standard protocol. The entire sensor surface was first activated by injecting a 1:1 (v/v) mixture of 400 mM EDC and 100 mM NHS at a flow rate of 10 μL/minute for 7 minutes. Monoclonal anti-human Fc antibody (Millipore AP113), 25 μg/mL in Na acetate pH5, 360 s were flowed at 10 μL/minute to reach 10000 RU on both flow cells followed by the injection of 1 M ethanolamine, pH8.5 for 7 minutes at a flow rate of 10 μL/minute. During the entire immobilization procedure, HBS-P was used as the running buffer.\nAntibody samples were prepared at 5 μg/ml and were injected for 30 seconds at 10 μL/minute. In general, 400 to 680 resonance units of antibodies were captured on the chip."}
{"molecule": "B1", "values": [{"measurement": "Kd", "result": 4.9, "unit": "nM"}]}
